The results in this text go back to the supplement of paper PMC7877785.

The nature of this data set: self-splicing fitness, log relative to wild type (ln ratio); higher = more splicing; Tetrahymena group I intron in knt gene, E. coli kanamycin selection, DiMSum; sequences stand for … in CUCUCU…GGAGGGAAAAGUUAUCAGGCAUGCACCUGGUAGCUAGUCUUUAAACCAAUAGAUUGCAUCGGUUUAAAAGGCAAGACCGUCAAAUUGCGGGAAAGGGGUCAACAGCCGUUCAGUACCAAGUCUCAGGGGAAACUUUGAGAUGGCCUUGCAAAGGGUAUGGUAAUAAGCUGACGGACAUGGUCCUAACCACGCAGCCAAGUCCUAAGUCAACAGAUCUUCUGUUGAUAUGGAUGCAGUUCACAGACUAAAUGUCGGUCGGGGAAGAUGUAUUCUUCUCAUAAGAUAUAGUCGGACCUCUCCUUAAUGGGAGCUAGCGGAUGAAGUGAUGCAACACUGGAGCCGCUGGGAACUAAUUUGUAUGCGAAAGUAUAUUGAUUAGUUUUGGAGUACUCGUGGUCG
In short, it runs like this:
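Pooled colonies went to amplicon sequencing on an Illumina HiSeq 2500 after six replicate transformations. The plates were LB agar with 100 μg/mL carbenicillin, 50 μM IPTG and 0.2% rhamnose, with or without 25 μg/mL kanamycin, incubated overnight at 37°C or 30°C. The E. coli BL21(DE3) library had all eight P1ex-region intron nucleotides randomised, the intron placed in the knt kanamycin-resistance gene on pET-22b(+). DiMSum fitness is the error-weighted combination of replicate fold changes, kanamycin against none, normalised to wild type.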

± gives the uncertainty stated by the source.

In the case of CAGCAGCAAUAUUACGAUUU, the “self-splicing fitness (ln)” value is -3.59 ± 0.17 (30 °C) and -1.91 ± 0.15 (37 °C).

As to CCAGAGCAAUAUUACGGUGG, the “self-splicing fitness (ln)” value (30 °C) is -3.31 ± 0.17 and the “self-splicing fitness (ln)” value (37 °C) was -3.31 ± 0.24. For AAGAAGCAAUAUUACGCGUA, in that order: -1.39 ± 0.099 and -0.914 ± 0.082.

For the sequence GCGUAGCAAUAUUACGCCUU, the “self-splicing fitness (ln)” value was -3.7 ± 0.33 (30 °C) and -1.3 ± 0.21 (37 °C). GUAAAGCAAUAUUACGCUUG: the “self-splicing fitness (ln)” value by setting is: (30 °C) -2.17 ± 0.15; (37 °C) -1.12 ± 0.17.

Regarding CUCGAGCAAUAUUACGGGAA, the “self-splicing fitness (ln)” value was -3.85 ± 0.35 (30 °C) and -2.42 ± 0.23 (37 °C). Consider CAUGAGCAAUAUUACGGUCA, for which the “self-splicing fitness (ln)” value runs as follows: (30 °C) -2.96 ± 0.2; (37 °C) -2.57 ± 0.22.

As to UUCGAGCAAUAUUACGAUGC, the “self-splicing fitness (ln)” value (30 °C) is -1.44 ± 0.4. Turning to CUUGAGCAAUAUUACGAAGG, the “self-splicing fitness (ln)” value (30 °C) is -1.97 ± 0.2. Regarding GGACAGCAAUAUUACGCAUA, the “self-splicing fitness (ln)” value was -0.761 ± 0.094 (30 °C) and 0.314 ± 0.12 (37 °C). The matching figures for CCAGAGCAAUAUUACGUUCU: -3.71 ± 0.31 and -1.84 ± 0.31. The matching figures for UUGGAGCAAUAUUACGGUAG: -3.58 ± 0.2 and -1.99 ± 0.18. For AGUAAGCAAUAUUACGUAGA, in that order: -3.23 ± 0.19 and -1.78 ± 0.16.

As to CACGAGCAAUAUUACGAUCA, the “self-splicing fitness (ln)” value runs as follows: (30 °C) -2.68 ± 0.22; (37 °C) -2.11 ± 0.19. For GAGAAGCAAUAUUACGAAUC, in that order: -3.91 ± 0.31 and -1.12 ± 0.19. Turning to AAACAGCAAUAUUACGGUUC, the “self-splicing fitness (ln)” value (30 °C) was -2.65 ± 0.078 and the “self-splicing fitness (ln)” value (37 °C) is -2.6 ± 0.12. The matching figures for CGCAAGCAAUAUUACGGAAU: -3.63 ± 0.15 and -2.77 ± 0.18. For AGUAAGCAAUAUUACGGGCG, in that order: -0.68 ± 0.08 and 0.152 ± 0.12. Take CCCUAGCAAUAUUACGCUUU: the “self-splicing fitness (ln)” value was -4.12 ± 0.22 (30 °C) and -2.49 ± 0.18 (37 °C). The matching figures for CCCGAGCAAUAUUACGCCUU: -2.99 ± 0.2 and -1.56 ± 0.34. The matching figures for AUUCAGCAAUAUUACGGUGA: -0.556 ± 0.097 and -0.526 ± 0.086. The matching figures for UGCCAGCAAUAUUACGCCCG: -0.317 ± 0.12 and 0.404 ± 0.14.

With CAUAAGCAAUAUUACGACAC, the “self-splicing fitness (ln)” value runs as follows: (30 °C) -2.18 ± 0.15; (37 °C) -2.12 ± 0.27.

Consider GCUGAGCAAUAUUACGGUCA, for which the “self-splicing fitness (ln)” value reads like this: (30 °C) -2.69 ± 0.15; (37 °C) -2.2 ± 0.14. For UAGAAGCAAUAUUACGAUAA, in that order: -1.05 ± 0.11 and -0.854 ± 0.12.

In the case of AUCUAGCAAUAUUACGUCCC, the “self-splicing fitness (ln)” value was -0.434 ± 0.3 (30 °C) and -0.129 ± 0.27 (37 °C). The matching figures for GGAUAGCAAUAUUACGUCUG: -0.225 ± 0.061 and -0.0327 ± 0.088.

For the sequence ACGCAGCAAUAUUACGUAGC, the “self-splicing fitness (ln)” value (30 °C) is -3.47 ± 0.12 and the “self-splicing fitness (ln)” value (37 °C) is -1.89 ± 0.14. For GCACAGCAAUAUUACGAAUC, in that order: -1.15 ± 0.076 and -0.69 ± 0.079. Turning to CUAAAGCAAUAUUACGCUAC, the “self-splicing fitness (ln)” value runs as follows: (30 °C) -3.59 ± 0.37; (37 °C) -2.59 ± 0.26. Turning to GGCGAGCAAUAUUACGUGCC, the “self-splicing fitness (ln)” value (37 °C) was -2.25 ± 0.45. Turning to UGGUAGCAAUAUUACGGGUA, the “self-splicing fitness (ln)” value was -2.28 ± 0.14 (30 °C) and -0.719 ± 0.12 (37 °C). The matching figures for UGUGAGCAAUAUUACGCCCA: -0.902 ± 0.39 and -1.3 ± 0.36.

Take GUUGAGCAAUAUUACGUUUA: the “self-splicing fitness (ln)” value was -3.32 ± 0.28 (30 °C) and -2.33 ± 0.31 (37 °C).

With UGGCAGCAAUAUUACGUGCA, the “self-splicing fitness (ln)” value (30 °C) is -0.0165 ± 0.1 and the “self-splicing fitness (ln)” value (37 °C) was -0.0321 ± 0.14.

As for UGUGAGCAAUAUUACGAAUA, the “self-splicing fitness (ln)” value is -3.54 ± 0.43 (30 °C) and -2.26 ± 0.36 (37 °C). The matching figures for AUUUAGCAAUAUUACGCAGU: -3 ± 0.28 and -2.18 ± 0.26. For GAUUAGCAAUAUUACGAGGC, in that order: -4.11 ± 0.46 and -1.02 ± 0.28.
